Assay results reported in US7304146B2, “Fluorogenic kinase assays and substrates” (Applera Corporation, priority 2004, dated 2007).
Where no end group is shown, it is not given here. [ ]: non-standard residue; d: D form. K(dye 2) = not defined here; K(tet) = not defined here; Orn = NCCC[C@H](N)C(=O)O; C12 = C12 group (lipid); C11 = C11 lipid

How the values were obtained:
[1] = side chain (imidazole of histidine; cysteine); cited from earlier work
[2] = target: protein kinase p38βII (Homo sapiens, UniProt Q15759); test: Fluorogenic kinase assay with p38βII, rates at varying ATP fitted to Michaelis-Menton equation; assay type: biochemical; conditions: p38bII 14 nM; 20 mM Tris pH 7.4, MgCl2 5 mM, DTT 5 mM; read 1 hour; read-out: apparent Km of ATP
protein kinase p38βII, sequence (Q15759 whole entry): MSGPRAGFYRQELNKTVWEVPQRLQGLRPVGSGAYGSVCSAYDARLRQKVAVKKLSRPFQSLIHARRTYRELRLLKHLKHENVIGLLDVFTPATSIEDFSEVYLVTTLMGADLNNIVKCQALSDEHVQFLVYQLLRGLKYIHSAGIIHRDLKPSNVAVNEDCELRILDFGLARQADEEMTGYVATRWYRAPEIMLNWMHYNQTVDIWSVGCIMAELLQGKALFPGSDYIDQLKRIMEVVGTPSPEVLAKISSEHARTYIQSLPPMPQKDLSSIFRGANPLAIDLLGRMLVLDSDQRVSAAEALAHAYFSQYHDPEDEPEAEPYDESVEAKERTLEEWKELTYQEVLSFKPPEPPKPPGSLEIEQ
Source text: A comparison of the rates of reaction for a kinase substrate comprising two hydrophobic moieties (i.e. C12OOK(dye 2)RRIPLSPOOK(C12)NH2, (peptide disclosed as SEQ ID NO: 20) used at a concentration of 2 μm and referred to herein as compound 2) versus a kinase substrate comprising a single hydrophobic moiety (i.e.C16OOK(dye 2)[…]2, (peptide disclosed as SEQ ID NO: 20) used at a concentration of 4 μm; and referred to herein as compound 4) for several concentrations of ATP (0, 5, 10, 20, 50, 100, 200, and 500 μM) is shown in FIGS. 4A and 4B. […] The rates of the reaction were fitted to the Michaelis-Menton equation. […]
(§1) Kinase assays were performed using Corning 384-well, black, non-binding surface (NBS), microwell plates. Fluorescence was read in real time using a […] Gemini XS plate reader, with excitation and emission set at 500 and 550 respectively. The plate was read every minute for one hour at ambient temperature
Concentrations of dye-labeled peptides were determined by dilution of the purified peptides into dimethylformamide (200 μL) with 1 M NaOH (5 μL) and measuring the absorbance of either 5-carboxy-2′,7′-dipyridyl-sulfonefluorescein (i.e. dye2) at its absorbance maximum (548 nm) or 2′,7′,4,7-tetachloro-5-carboxy fluorescein (i.e. 2′,7′-dichloro-5-carboxy-4,7-dichlorofluorescein or “tet”) at its absorbance maximum (541 nm). […]

[3] = target: protein kinase Akt3/PKBγ (Homo sapiens, UniProt Q9Y243); test: Fluorogenic kinase assay with Akt3/PKBγ, rate of reaction, two vs one hydrophobic moiety; assay type: biochemical; conditions: compared with one-hydrophobic-moiety substrate C15OOOK(dye2)RPRTSSF-NH2; substrates 8 μM, Akt3/PKBγ 6 nM, ATP 100 μM (FIG. 5)
protein kinase Akt3/PKBγ, sequence (Q9Y243 whole entry): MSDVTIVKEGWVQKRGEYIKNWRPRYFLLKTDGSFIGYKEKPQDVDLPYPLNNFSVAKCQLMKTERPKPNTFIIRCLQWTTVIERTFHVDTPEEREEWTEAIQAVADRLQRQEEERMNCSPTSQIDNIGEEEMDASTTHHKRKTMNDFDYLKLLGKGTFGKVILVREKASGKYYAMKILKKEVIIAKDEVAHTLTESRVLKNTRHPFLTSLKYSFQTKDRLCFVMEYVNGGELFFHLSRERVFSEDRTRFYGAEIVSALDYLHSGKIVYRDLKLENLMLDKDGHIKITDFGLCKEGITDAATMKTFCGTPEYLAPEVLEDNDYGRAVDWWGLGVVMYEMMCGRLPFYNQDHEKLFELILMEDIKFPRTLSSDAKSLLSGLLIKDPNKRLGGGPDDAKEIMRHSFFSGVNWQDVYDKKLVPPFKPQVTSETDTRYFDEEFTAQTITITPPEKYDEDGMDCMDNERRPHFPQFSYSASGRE
Protocol: Tet is the fluorescein dye 2′,7′,4,7-tetachloro-5-carboxy fluorescein.
as §1
Concentrations of dye-labeled peptides were determined by dilution of the purified peptides into dimethylformamide (200 μL) with 1 M NaOH (5 μL) and measuring the absorbance of either 5-carboxy-2′,7′-dipyridyl-sulfonefluorescein (i.e. dye2) at its absorbance maximum (548 nm) or 2′,7′,4,7-tetachloro-5-carboxy fluorescein (i.e. 2′,7′-dichloro-5-carboxy-4,7-dichlorofluorescein or “tet”) at its absorbance maximum (541 nm). The extinction coefficient of both dyes was assumed to be 80,000 cm^−1M^−1.

Km [2]	Compound	other results
–	N[C@@H](Cc1c[nH]cn1)C(=O)O [Histidine (H), Histidine]	pK [1]: about 7
90 µM	C12OOK(dye 2)ArgArgIleProLeuSerProOOK(C12)NH2 ({C12-Orn-Orn-K(dye 2)}-RRIPLSP[Orn][Orn]-{K(C12)-NH2}; not fully specified; printed as C12OOK(dye 2)ArgArgIleProLeuSerProOOK(C12)NH2; reading uncertain) [compound 2, kinase substrate for p38βII with two C12 hydrophobic moieties and Dye 2]	–
> 200 µM	C16OOK(dye 2)RRIPLSPNH2 (RRIPLSP-NH2; not fully specified (N-terminus); printed as C16OOK(dye 2)RRIPLSPNH2) [compound 4, comparison kinase substrate with a single hydrophobic moiety]	–
–	C11OOK(tet)ArgProArgThrSerSerPheOOK(C11)NH2 ({C11-Orn-Orn-K(tet)}-RPRTSSF[Orn][Orn]-{K(C11)-NH2}; not fully specified; printed as C11OOK(tet)ArgProArgThrSerSerPheOOK(C11)NH2; reading uncertain) [compound 3, kinase substrate for Akt3/PKBγ with two C11 hydrophobic moieties and tet dye]	signal to noise ratio [3]: improved signal to noise ratio
